According to publication PMC7442826, “The mechanism of activation of the actin binding protein EHBP1 by Rab8 family members” (Nature Communications, 2020):
Blank lines part the entries; values can stand above or below the binder they belong to.

B1: EHBP1 bMERB domain (bMERB_(1060-1212), full-length bMERB domain) (domain or fragment)
chain: not shown
notes: EHBP1 bMERB domain, human, residues 1060-1212, all three predicted helices; PDB 6ZSI and 6ZSJ hold the M1116A and F1120A mutants of the full-length bMERB domain; also called bMERB^EHBP1; full-length construct
B2: EHBP1 CH (calponin homology) domain (domain or fragment, human)
chain: GRKPNASQSLLVWCKEVTKNYRGVKITNFTTSWRNGLSFCAILHHFRPDLIDYKSLNPQDIKENNKKAYDGFASIGISRLLEPSDMVLLAIPDKLTVMTYLYQIRAHFSGQ
notes: EHBP1 central CH domain, human; also called CH domain; CH^EHBP1
B6: Rab8a_(1-176) (human Rab8a G-domain) (domain or fragment, UniProt P61006 1-176, looked up)
chain: MAKTYDYLFKLLLIGDSGVGKTCVLFRFSEDAFNSTFISTIGIDFKIRTIELDGKRIKLQIWDTAGQERFRTITTAYYRGAMGIMLVYDITNEKSFDNIRNWIRNIEEHASADVEKMILGNKCDVNDKRQVSKERGEKLALDYGIKFMETSAKANINVENAFFTLARDIKAKMDKK
notes: Rab8a G-domain, human, residues 1-176; in the stopped-flow assays to the fluorescent mantGppNHp (non-covalent); also called GppNHp Rab8a_(1-176); Rab8a_(GppNHp); source: preparatively loaded with GppNHp or mantGppNHp

How the values were obtained:
Details in all cases: both partners purified
[1] = molecular target: T1, Rab10_(1-175_T73E) (phosphomimetic Rab10) (human, UniProt P61026 1-175, T73E); assay: SEC; analytical SEC, Superdex 75 10/300 GL; 110 µM bMERB domain mixed with 121 µM GppNHp Rab (1:1.1); 20 mM Hepes 7.5, 50 mM NaCl, 1 mM MgCl2, 2 mM DTE; room temperature
T1 construct: Rab10 G-domain, human, residues 1-175, phosphomimetic switch II mutant; also called Rab10_(T73E); 10_(T73E)
T1 sequence (looked up): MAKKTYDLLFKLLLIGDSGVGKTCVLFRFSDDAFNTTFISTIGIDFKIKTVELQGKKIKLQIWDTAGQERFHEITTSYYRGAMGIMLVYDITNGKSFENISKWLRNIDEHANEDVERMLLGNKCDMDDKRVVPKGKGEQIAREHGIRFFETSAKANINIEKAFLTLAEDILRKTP

[2] = molecular target: T2, Rab8a_(1-176_T72E) (phosphomimetic Rab8a) (human, UniProt P61006 1-176, T72E); assay: ITC; 500 µM GppNHp Rab titrated into 50 µM bMERB domain; 20 mM Hepes 7.5, 50 mM NaCl, 1 mM MgCl2, 1 mM TCEP; 25 °C; one-site-binding model
T2 construct: Rab8a G-domain, human, residues 1-176, phosphomimetic switch II mutant; also called Rab8a_(T72E)
T2 sequence (looked up): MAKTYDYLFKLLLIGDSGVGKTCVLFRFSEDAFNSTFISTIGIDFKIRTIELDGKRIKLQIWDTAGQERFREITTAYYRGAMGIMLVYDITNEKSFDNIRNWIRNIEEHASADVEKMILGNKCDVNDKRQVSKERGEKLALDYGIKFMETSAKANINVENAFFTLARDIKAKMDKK

[3] = molecular target: B6; assay: as above
[4] = molecular target: T3, Rab10_(1-175) (human Rab10 G-domain) (human, UniProt P61026 1-175); assay: as above
T3 construct: Rab10 G-domain, human, residues 1-175
T3 sequence (looked up): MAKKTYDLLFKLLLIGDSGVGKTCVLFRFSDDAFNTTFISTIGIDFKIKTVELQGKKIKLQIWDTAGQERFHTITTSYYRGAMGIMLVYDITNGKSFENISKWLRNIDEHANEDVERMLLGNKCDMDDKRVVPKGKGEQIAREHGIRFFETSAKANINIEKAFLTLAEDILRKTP

[5] = molecular target: B6; assay: stopped-flow fluorescence kinetics; dissociation: complex of mantGppNHp Rab8a_(1-176) with the bMERB domain (2 µM) mixed with a 20-fold excess of unlabeled GppNHp Rab8a_(1-176); 25 °C
[6] = molecular target: B6; assay: stopped-flow fluorescence kinetics; association: 0.5 µM mantGppNHp Rab8a_(1-176) with 1.5–8 µM bMERB domain, pseudo first order; koff from the y-axis intercept; Rab buffer, 25 °C
[7] = molecular target: F-actin (rabbit skeletal muscle actin, polymerized) (rabbit, UniProt P68135 1-377); assay: co-sedimentation; 10 µM F-actin with 0–60 µM EHBP1 CH domain, 1 h RT; 5 mM Tris-HCl pH 7.5, 0.18 mM CaCl2, 15 mM KCl, 1 mM DTT, 1.8 mM NaN3; 100,000 g 1 h 4 °C; densitometry of SDS-PAGE
[8] = molecular target: B1; assay: ITC; 600–800 µM CH domain titrated into 40–60 µM bMERB domain; 20 mM Hepes 7.5, 150 mM NaCl, 1 mM TCEP; 25 °C; one-site-binding model
[9] = molecular target: B1; assay: stopped-flow fluorescence kinetics; dissociation: complex of Cy3 labeled CH with full-length bMERB domain (2 µM) mixed with a 20-fold excess of unlabeled CH domain; CH buffer
[10] = molecular target: B1; assay: stopped-flow fluorescence kinetics; association: 0.5 µM Cy3 labeled CH domain with 2–16 µM full-length bMERB domain; koff from the y-axis intercept; CH buffer, 25 °C
[11] = molecular target: B2; assay: ITC; 600–800 µM CH domain titrated into 40–60 µM bMERB domain; 20 mM Hepes 7.5, 150 mM NaCl, 1 mM TCEP; 25 °C; one-site-binding model
[12] = molecular target: T4, EHBP1 bMERB domain V1186A (human, UniProt Q8NDI1-1 1060-1212, V1186A); assay: ITC; 500 µM GppNHp Rab titrated into 50 µM bMERB domain; 20 mM Hepes 7.5, 50 mM NaCl, 1 mM MgCl2, 1 mM TCEP; 25 °C; one-site-binding model
T4 construct: EHBP1 bMERB domain, human, residues 1060-1212 as the wild-type construct; numbers on isoform 1 (Q8NDI1-1); source: E. coli BL21 DE3-RIL, purified

[13] = molecular target: T5, EHBP1 bMERB domain L1182S (human, UniProt Q8NDI1-1 1060-1212, L1182S); assay: as above
T5 construct: EHBP1 bMERB domain, human, residues 1060-1212 as the wild-type construct; numbers on isoform 1 (Q8NDI1-1); source: E. coli BL21 DE3-RIL, purified

[14] = molecular target: T6, EHBP1 bMERB domain R1189A (human, UniProt Q8NDI1-1 1060-1212, R1189A); assay: as above
T6 construct: EHBP1 bMERB domain, human, residues 1060-1212 as the wild-type construct; numbers on isoform 1 (Q8NDI1-1); source: E. coli BL21 DE3-RIL, purified

[15] = molecular target: T7, EHBP1 bMERB domain L1179S (human, UniProt Q8NDI1-1 1060-1212, L1179S); assay: as above
T7 construct: EHBP1 bMERB domain, human, residues 1060-1212 as the wild-type construct; numbers on isoform 1 (Q8NDI1-1); source: E. coli BL21 DE3-RIL, purified

[16] = molecular target: T8, EHBP1 bMERB domain L1156S (human, UniProt Q8NDI1-1 1060-1212, L1156S); assay: as above
T8 construct: EHBP1 bMERB domain, human, residues 1060-1212 as the wild-type construct; numbers on isoform 1 (Q8NDI1-1); source: E. coli BL21 DE3-RIL, purified

[17] = molecular target: T9, EHBP1 bMERB domain N1187A (human, UniProt Q8NDI1-1 1060-1212, N1187A); assay: as above
T9 construct: EHBP1 bMERB domain, human, residues 1060-1212 as the wild-type construct; numbers on isoform 1 (Q8NDI1-1); source: E. coli BL21 DE3-RIL, purified

[18] = molecular target: B6; assay: crystal structure; sitting-drop vapor diffusion, 20 °C; 300–400 µM 1:1 complexes

T7 sequence (Q8NDI1 1060-1212 L1179S): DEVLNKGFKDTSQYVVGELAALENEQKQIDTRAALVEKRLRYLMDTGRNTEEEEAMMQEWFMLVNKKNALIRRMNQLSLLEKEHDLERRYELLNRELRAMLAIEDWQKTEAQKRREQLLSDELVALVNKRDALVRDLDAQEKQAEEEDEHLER
T9 sequence (Q8NDI1 1060-1212 N1187A): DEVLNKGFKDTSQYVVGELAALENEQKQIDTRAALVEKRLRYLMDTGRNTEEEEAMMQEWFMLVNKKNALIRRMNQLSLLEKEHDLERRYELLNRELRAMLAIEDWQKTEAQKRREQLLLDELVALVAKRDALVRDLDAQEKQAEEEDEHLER
T5 sequence (Q8NDI1 1060-1212 L1182S): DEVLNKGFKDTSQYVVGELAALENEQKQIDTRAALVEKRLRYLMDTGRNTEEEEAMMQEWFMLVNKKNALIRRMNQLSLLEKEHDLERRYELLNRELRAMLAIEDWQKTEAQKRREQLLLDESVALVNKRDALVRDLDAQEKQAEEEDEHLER
T4 sequence (Q8NDI1 1060-1212 V1186A): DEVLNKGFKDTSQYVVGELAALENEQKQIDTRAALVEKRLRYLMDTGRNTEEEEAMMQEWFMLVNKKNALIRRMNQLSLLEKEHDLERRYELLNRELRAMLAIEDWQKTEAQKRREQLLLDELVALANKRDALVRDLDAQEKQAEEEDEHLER
T6 sequence (Q8NDI1 1060-1212 R1189A): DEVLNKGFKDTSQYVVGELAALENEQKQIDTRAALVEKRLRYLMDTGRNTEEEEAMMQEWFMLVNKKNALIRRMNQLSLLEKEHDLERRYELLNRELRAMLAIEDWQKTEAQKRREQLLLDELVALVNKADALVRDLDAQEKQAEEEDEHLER
T8 sequence (Q8NDI1 1060-1212 L1156S): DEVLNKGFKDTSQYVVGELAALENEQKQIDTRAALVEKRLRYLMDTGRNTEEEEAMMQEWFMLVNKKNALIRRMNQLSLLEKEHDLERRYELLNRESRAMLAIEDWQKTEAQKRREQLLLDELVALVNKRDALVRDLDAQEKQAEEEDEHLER

binding result [3]: binds
B8: EHBP1 bMERB domain Q1176A (domain or fragment)
chain: not shown
notes: EHBP1 bMERB domain, human, residues 1060-1212 as the wild-type construct; numbers on isoform 1 (Q8NDI1-1); source: E. coli BL21 DE3-RIL, purified

Kd [3]: 300 nM
B9: EHBP1 bMERB domain lacking the N-terminal helix (helices 2-3) (domain or fragment)
chain: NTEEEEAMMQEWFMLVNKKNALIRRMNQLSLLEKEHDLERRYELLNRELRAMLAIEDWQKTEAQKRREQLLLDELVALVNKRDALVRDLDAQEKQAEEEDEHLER

binding result [18]: binds
B10: EHBP1 full-length bMERB domain F1120A (domain or fragment)
chain: not shown
notes: EHBP1 full-length bMERB domain, human, residues 1060-1212 as the wild-type construct; numbers on isoform 1 (Q8NDI1-1); also called bMERB_(F1120A); source: E. coli BL21 DE3-RIL, purified

Continued, binder first:

Binder: B1
binding result [1]: binds
binding result [2]: binds
Kd [3]: 310 nM
binding result [4]: binds
koff [5]: 13.8 s⁻¹
Kd [6]: 480 nM
koff [6]: 13.4 s⁻¹
kon [6]: 2.79e+07 M⁻¹ s⁻¹

Binder: B2
Kd [7]: 9340 ± 1860 nM
Kd [8]: 1200 nM
stoichiometry N [8]: 1

B3: Cy3 labeled EHBP1 CH domain (domain or fragment, human)
chain: GRKPNASQSLLVWCKEVTKNYRGVKITNFTTSWRNGLSFCAILHHFRPDLIDYKSLNPQDIKENNKKAYDGFASIGISRLLEPSDMVLLAIPDKLTVMTYLYQIRAHFSGQ
modifications: Cy3 on the N-terminus
notes: EHBP1 central CH domain, human; also called Cy3-CH; source: E. coli BL21 DE3-RIL, purified; labelled with Cy3-thioester
koff [9]: 117 s⁻¹
Kd [10]: 3750 to 4230 nM
koff [10]: 104 s⁻¹
kon [10]: 2.76e+07 M⁻¹ s⁻¹

B4: EHBP1 CH domain D532A (domain or fragment, human)
chain: GRKPNASQSLLVWCKEVTKNYRGVKITNFTTSWRNGLSFCAILHHFRPDLIDYKSLNPQDIKENNKKAYDGFASIGISRLLEPSDMVLLAIPAKLTVMTYLYQIRAHFSGQ
notes: EHBP1 CH domain, human; numbers on isoform 1 (Q8NDI1-1); source: E. coli BL21 DE3-RIL, purified
fold reduction in binding affinity against the wild-type CH domain [8]: > 40 fold

B5: EHBP1 bMERB_(H1-2) (bMERB domain lacking the C-terminal helix) (domain or fragment)
chain: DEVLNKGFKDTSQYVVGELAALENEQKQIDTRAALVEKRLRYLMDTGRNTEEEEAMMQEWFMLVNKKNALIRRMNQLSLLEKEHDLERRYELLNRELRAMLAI
Kd [11]: 780 nM

Binder: B6
fold reduction in binding affinity against the wild-type bMERB domain [12]: > 30 fold
fold decrease in binding affinity against the wild-type bMERB domain [13]: 10 fold
fold reduction in binding affinity against the wild-type bMERB domain [14]: 20 fold
fold decrease in binding affinity against the wild-type bMERB domain [15]: 10 fold
fold reduction in affinity against the wild-type bMERB domain [16]: 47 fold
fold reduction in binding affinity against the wild-type bMERB domain [17]: 5 fold

B7: EHBP1 full-length bMERB domain M1116A (domain or fragment)
chain: not shown
notes: EHBP1 full-length bMERB domain, human, residues 1060-1212 as the wild-type construct; numbers on isoform 1 (Q8NDI1-1); also called bMERB_(M1116A); source: E. coli BL21 DE3-RIL, purified
binding result [18]: binds
